Experiments:
BG5050 SOSIP.664 D368R = molecular target: T1, BG5050 SOSIP.664 D368R (HIV-1); assay: BLI, His-tagged target on Ni-NTA
T1 construct: also called BG505 SOSIP D368R; BG505 SOSIP.664_D368R trimer

soluble CD4 = soluble CD4 (UniProt P01730 26-390); assay: BLI, His-tagged target on Ni-NTA

Binder	Kd (BG5050 SOSIP.664 D368R) [nM]	koff (BG5050 SOSIP.664 D368R) [s⁻¹]	kon (BG5050 SOSIP.664 D368R) [M⁻¹ s⁻¹]	binding result (soluble CD4)
PGDM1400 IgG1 (antibody, V domains shown) VH: QAQLVQSGPEVRKPGTSVKVSCKAPGNTLKTYDLHWVRSVPGQGLQWMGWISHEGDKKVIVERFKAKVTIDWDRSTNTAYLQLSGLTSGDTAVYYCAKGSKHRLRDYALYDDDGALNWAVDVDYLSNLEFWGQGTAVTVSS VL: DFVLTQSPHSLSVTPGESASISCKSSHSLIHGDRNNYLAWYVQKPGRSPQLLIYLASSRASGVPDRFSGSGSDKDFTLKISRVETEDVGTYYCMQGRESPWTFGQGTKVDIKR	38	0.000262	6900	no binding
N49P7 IgG1 (antibody, V domains shown) VH: ADLVQSGAVVKKPGDSVRISCEAQGYRFPDYIIHWIRRAPGQGPEWMGWMNPMGGQVNIPWKFQGRVSMTRDTSIETAFLDLRGLKSDDTAVYYCVRDRSNGSGKRFESSNWFLDLWGRGTAVTIQS VL: QSALTQPRSVSASPGQSVTISCTGTHNLVSWCQHQPGRAPKLLIYDFNKRPSGVPDRFSGSGSGGTASLTITGLQDDDDAEYFCWAYEAFGGGTKLTVLG	–	–	–	no binding
10E8v4 IgG1 (antibody, V domains shown) VH: EVRLVESGGGLVKPGGSLRLSCSASGFDFDNAWMTWVRQPPGKGLEWVGRITGPGEGWSVDYAESVKGRFTISRDNTKNTLYLEMNNVRTEDTGYYFCARTGKYYDFWSGYPPGEEYFQDWGQGTLVIVSS VL: SELTQDPAVSVALKQTVTITCRGDSLRSHYASWYQKKPGQAPVLLFYGKNNRPSGIPDRFSGSASGNRASLTITGAQAEDEADYYCSSRDKSGSRLSVFGGGTKLTVLS	–	–	–	no binding

Reference: patent publication US20250276070A1 (HOSPITAL FOR SICK CHILDREN, published 2025)
